# Results from article PMC10917881, “Biochemical characterization of L-asparaginase isoforms from Rhizobium etli—the boosting effect of zinc” (Frontiers in Chemistry, 2024).
# Substitutions are numbered along the chain they refer to. Names and notes keep the numbering of the source.
# B1: ReAIV (Rhizobium etli CFN 42) (protein)
# chain: MTNPVTVEVTRGLLVESRHRGAVAVVDGDGKLFFSLGDIDTAVFPRSACKAMQALPLVESGAADAYGFGDKELALACASHNGEEEHVALAASMLSRAGRNVEALECGAHWSMNQKVLIQQARSLDAPTALHNNCSGKHAGFICACCHRDIDPKGYVGYEHPLQVEIRAVMERLTGAVLGAESCGTDGCSIPTYAMPLRNLAHGFARMATGTGLEPLRAKASRRLIEACMAEPFYVAGSGRACTKLMQIAPGRIFVKTGAEGVFCAAIPEKGIGISLKSEDGATRAAEAMVAATLARFFETEETVHAALMAFAAMPMRNWNGIHVGDIRATSVFSA
# notes: full length, 335 residues; N-terminal 6xHis tag cut off by TEV (pET151D); E. coli BL21 Gold (DE3); homodimer
# B2: ReAIV (Rhizobium etli CFN 42; K137A) (protein)
# chain: B1 chain with K137A
# B3: ReAV (Rhizobium etli CFN 42) (protein)
# chain: MTPSEDFVVTDRGGIVENSHRVHAAVVDAKGRLLYALGNPTRMTLARSAAKPAQALAILETEGVAGYGFDDADIALMCASHSSEDRHIARTRAMLSKIKAEEADLRCGGHPSLSEMVNRSWIKQDFIPTAVCSNCSGKHVGMLAGARAIGAGTDGYHLPDHPMQGRVKRTVAELCDLDAGDVEWGTDGCNLPTPAFPLDRLGRIYAKLASAADGSDAGEGQSTRCAALAHIFRAMARHPEMVAGEGRYCTMLMRAFDGALVGKLGADASYAIGVRASDATRQLGTDGALGISVKIEDGNLEMLYAVVTELLERLGIGSPDVRSQLASFHHPQRVNTMGVTTGGVSFPFKLRGSKSNVDDPRLAAVAR
# notes: full length, 367 residues; N-terminal 6xHis tag cut off by TEV (pET151D); E. coli BL21 Gold (DE3); homodimer
# B4: ReAV (Rhizobium etli CFN 42; K138A) (protein)
# chain: B3 chain with K138A
# notes: as for B3
# Legend:
# [1] = substrate: C=CC(N)=O; assay: ITC, Michaelis-Menten fit; assay type: biochemical, Rhizobium etli; details: possible substrate only: heat signal, product not confirmed by Nessler, protein adduct not excluded; fit before product inhibition / inactivation
# Description: ITC, Michaelis-Menten fit on ReAIV | after acrylamide injection into the reaction cell containing ReAIV, but not ReAV
# [2] = substrate: NC(=O)C[C@H](N)C(=O)O; assay: ITC multiple injection method (heat-rate); assay type: biochemical, Rhizobium etli; details: 10 mM Tris-HCl pH 9.0, 37°C, with optimal 1 µM Zn2+ (metal cofactor)
# Description: ITC multiple injection method (heat-rate) on ReAIV
# purified protein = substrate: NC(=O)C[C@H](N)C(=O)O; assay: purified protein; details: 10 mM Tris-HCl pH 9.0, 37°C, with optimal Zn2+ (metal cofactor)
# [3] = substrate: NC(=O)C[C@H](N)C(=O)O; assay: ITC multiple injection method (heat-rate); assay type: biochemical, Rhizobium etli; details: Tris-HCl pH 9.0, 37°C
# Description: ITC multiple injection method (heat-rate) on ReAV
# [4] = with optimal 2.5 µM Zn2+ (metal cofactor)
protein,measurement,setting,value
B1,Km,[1],5500 µM
same,kcat,[1],12.6 s⁻¹
same,Km,[2],1500 ± 100 µM
same,kcat,[2],770 ± 17 s⁻¹
same,kcat/Km,[2],526000 ± 34000 M⁻¹ s⁻¹
B2,Km,purified protein,2300 ± 100 µM
same,kcat,purified protein,158 s⁻¹
same,kcat/Km,purified protein,70000 M⁻¹ s⁻¹
B3,Km,[3]; [4],2100 ± 200 µM
same,kcat,[3]; [4],603 ± 24 s⁻¹
same,kcat/Km,[3]; [4],294000 ± 31000 M⁻¹ s⁻¹
B4,Km,[3]; with optimal Zn2+ (metal cofactor),500 ± 100 µM
